# Measurements as given in IntAct's records for PubMed 22632832.
# B1: Speckle-type POZ protein (Homo sapiens), O43791 (parent)
# chain: MSRVPSPPPPAEMSSGPVAESWCYTQIKVVKFSYMWTINNFSFCREEMGEVIKSSTFSSGANDKLKWCLRVNPKGLDEESKDYLSLYLLLVSCPKSEVRAKFKFSILNAKGEETKAMESQRAYRFVQGKDWGFKKFIRRDFLLDEANGLLPDDKLTLFCEVSVVQDSVNISGQNTMNMVKVPECRLADELGGLWENSRFTDCCLCVAGQEFQAHKAILAARSPVFSAMFEHEMEESKKNRVEINDVEPEVFKEMMCFIYTGKAPNLDKMADDLLAAADKYALERLKVMCEDALCSNLSVENAAEILILADLHSADQLKTQAVDFINYHASDVLETSGWKSMVVSHPHLVAEAYRSLASAQCPFLGPPRKRLKQS
# Variants of: B1
# Conditions: with cul3_human CUL3, Q13618
row,Variant,effect of a mutation on the interaction
1,MSRVPSPPPPAEMSSGPVAESWCYTQIKVVKFSYMWTINNFSFCREEMGEVIKSSTFSSGANDKLKWCLRVNPKGLDEESKDYLSLYLLLVSCPKSEVRAKFKFSILNAKGEETKAMESQRAYRFVQGKDWGFKKFIRRDFLLDEANGLLPDDKLTLFCEVSVVQDSVNISGQNTMNMVKVPECRLADELGGLWENSRFTDCCLCVAGQEFQAHKAILAARSPVFSAMFEHEEEESKKNRVEINDVEPEVFKEMMCFIYTGKAPNLDKMADDLLAAADKYALERLKVMCEDALCSNLSVENAAEILILADLHSADQLKTQAVDFINYHASDVLETSGWKSMVVSHPHLVAEAYRSLASAQCPFLGPPRKRLKQS [M233E],disrupting interaction strength
